Target: FIV Pr50^Gag-His6-tagged protein (feline immunodeficiency virus Gag precursor polyprotein) (feline immunodeficiency virus (Petaluma strain 34TF10))
Experiment: dynamic light scattering; purified Pr50^Gag in solution, HEPES-KOH buffer (pH 8); hydrodynamic radius from volume and number distribution

Question: For “FIV Pr50^Gag-His6-tagged protein (feline immunodeficiency virus Gag precursor polyprotein) (natural protein)”, which stoichiometry N is on record?
Answer: 2

Source: paper PMC10726167
